From CN110872347A (TIANJIN TIMMUNE BIOTECH INC, dated 2020)

Molecular target: HLA-A2/…抗原复合物 (human)
Assay: SPR, Biacore T200, antigen on SA chip, Fc fusion as analyte 1-20 nM, Bivalent Analyte model

B1: 融合蛋白M3-E7-Fc (Fc fusion, not shown: a dimerising Fc or GST)
chain: VQLVASGGGLVPPGGSLRLSCAASGRTFNVDAMAWFRQTRGKEREFVAAISRSGGSTYYADSVKGRFSISKDNAKNTMYLQMNSLKPEDTAIYYCAAAIYWRGSYYTEGNYDYWGQRTQVTVSS
B1 showed a Kd of 9 nM, a koff of 0.0309 s⁻¹ and a kon of 3.43e+06 M⁻¹ s⁻¹.

B2: 融合蛋白M3-D9-Fc (Fc fusion, not shown: a dimerising Fc or GST)
chain: VQLVETGGGLVQPGGSLRLSCAASGFTFSDYAIQWVRQAPGKGLGRVSYINSGGDTTYYADSVKGRFSIARDNAKNTVYLQMNSLKPEDTAVYYCYAGGYWGQGTQVTVSS
Work on B2 yielded a Kd of 25 nM, a koff of 0.0171 s⁻¹ and a kon of 678000 M⁻¹ s⁻¹.
